The values that follow come from paper PMC9943654, “The recognition mode between hsRBFA and mitoribosome 12S rRNA during mitoribosomal biogenesis”.

For data set [1], the target named is T1, hsRBFA Nt-KH (Homo sapiens, UniProt Q8N0V3 42-201).
T1 sequence: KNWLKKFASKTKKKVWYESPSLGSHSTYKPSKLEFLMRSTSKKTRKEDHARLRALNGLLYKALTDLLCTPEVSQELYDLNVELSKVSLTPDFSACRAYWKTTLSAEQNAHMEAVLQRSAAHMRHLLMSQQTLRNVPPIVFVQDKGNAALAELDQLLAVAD
Put plainly: EMSA; EMSA: 20 mM Tris-HCl pH 8.0, 200 mM NaCl, 37 C 30 min, 200 nM ssRNA or 2 uM dsRNA; FP: same buffer, 40 nM 5'-FAM RNA, temperature not stated. The settings on record: protein: recombinant, tags: His6-MBP N-terminal. Background: Mobility shift assays separate free from complexed probe on a gel.

The target in data set [2] is T2, hsRBFA KH-like (Homo sapiens, UniProt Q8N0V3 86-201).
T2 sequence: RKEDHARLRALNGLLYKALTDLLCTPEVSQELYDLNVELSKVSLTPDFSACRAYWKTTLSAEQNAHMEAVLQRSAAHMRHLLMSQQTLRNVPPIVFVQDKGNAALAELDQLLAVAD
The description is as above. The settings on record: protein: recombinant, tags: His6-MBP N-terminal.

Data set [3] concerns the target T3, hsRBFA Nt (Homo sapiens, UniProt Q8N0V3 42-89).
T3 chain: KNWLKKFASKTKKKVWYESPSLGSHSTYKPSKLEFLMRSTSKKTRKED
Put plainly: EMSA; complex stays in well; EMSA: 20 mM Tris-HCl pH 8.0, 200 mM NaCl, 37 C 30 min, 200 nM ssRNA or 2 uM dsRNA; FP: same buffer, 40 nM 5'-FAM RNA, temperature not stated. The conditions noted are these: protein: recombinant, tags: His6-MBP N-terminal, hairpin.

B1: AU (structured_RNA)
RNA: AUAAUAGAAGUAUUAU
Take B1: in data set [1] (hairpin), the binding result was “binds”.

B2: ssRNA-3'end (ssRNA)
RNA: GACGAAC
In the case of B2, the binding result in data set [2] (single strand) is on record as “no binding”.

B3: h28 (structured_RNA)
RNA: GGUGGCGGUGCUUCAUUCGUGAAGCGCGUCACC
Regarding B3, the binding result in data set [1] (hairpin) is reported as “binds”; in data set [2] (hairpin), “no binding”; in data set [3], “binds”.

B4: DNA (dsDNA)
DNA 1: TTGGTCAG
DNA 2: CTGACCAA
Take B4: in data set [1] (blunt), the binding result is on record as “binds”.

B5: GC (structured_RNA)
RNA: CGCCGCGAAGGCGGCG
As to B5, the binding result in data set [1] (hairpin) is listed as “binds”.

B6: h45 (structured_RNA)
RNA: UAAGUGUACUGGAAAGUGCACUUG
As to B6, the binding result is “binds” in data set [1] (hairpin), “no binding” in data set [2] (hairpin) and “binds” in data set [3].

B7: h44 (structured_RNA)
RNA: GGCGUCACCCUCUUCGGAGACAAGUCGCC
On to B7, for which the binding result in data set [1] (label: 5'-FAM in FP, hairpin) is listed as “binds”; in data set [2] (label: 5'-FAM in FP, hairpin), “no binding”; in data set [3] (label: 5'-FAM in FP) it was “binds”.
